Measured values reported in US20080311122A1, “Antagonists of Hmgb1 and/or Rage and Methods of Use Thereof” (Medimmune, LLC, priority 2005, published 2008).
“Also recorded” adds a separate entry of the source.

T1: HMG2 (Bos taurus, UniProt P40673)
T1 construct: from tissue; host or cells: calf thymus (as read from the sentence)
T1 sequence (P40673 1-209): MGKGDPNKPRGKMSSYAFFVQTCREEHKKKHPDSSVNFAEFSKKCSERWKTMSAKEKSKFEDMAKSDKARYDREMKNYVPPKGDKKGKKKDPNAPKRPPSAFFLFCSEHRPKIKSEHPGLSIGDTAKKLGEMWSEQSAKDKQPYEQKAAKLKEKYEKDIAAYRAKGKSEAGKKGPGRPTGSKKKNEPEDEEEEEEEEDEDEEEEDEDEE

T2: recombinant HMG1 binding to RAGE-Fc (Homo sapiens, UniProt P09429)
T2 construct: made in house; host or cells: E. coli (HMG1)
T2 sequence (P09429 1-215): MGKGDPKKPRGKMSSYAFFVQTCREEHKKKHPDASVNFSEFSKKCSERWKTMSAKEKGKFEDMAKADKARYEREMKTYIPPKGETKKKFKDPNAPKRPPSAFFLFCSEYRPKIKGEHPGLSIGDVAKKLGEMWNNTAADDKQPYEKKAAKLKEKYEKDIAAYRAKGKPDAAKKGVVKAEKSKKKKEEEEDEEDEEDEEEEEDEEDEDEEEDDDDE


What was measured:
[1] = Isoelectric focusing gel electrophoresis; type: physicochemical
Procedure: Isoelectric Focusing Gel Electrophoresis: Isoelectric points were determined using a Pharmacia Biotech Multiphor 2 electrophoresis system with a multi temp 3 refrigerated bath recirculation unit and an EPS 3501 XL power supply. Pre-cast ampholine gels (Amersham Biosciences, pI range 2.5-10) were loaded with 5 μg of protein. Broad range pI marker standards (Amersham, pI range 3-10, 8 μL) were used to determine relative pI for the Mabs. Electrophoresis was performed at 1500 V, 50 mA for 105 minutes. The gel was fixed using a Sigma fixing solution (5×) diluted with purified water to 1×. Staining was performed overnight at room temperature using Simply Blue stain (Invitrogen). Destaining was carried out with a solution that consisted of 25% ethanol, 8% acetic acid and 67% purified water. Isoelectric points were determined using a Bio-Rad Densitometer relative to calibration curves of the standards.

HMG2 = target: T1, HMG2; test: Binding to HMG1 vs. HMG2 ELISA; set-up: species or system calf; details: immobilized antigen
Procedure: Binding to HMG1 vs. HMG2: Ultra high-binding ELISA plates (ThermoLab systems, #3855) were coated with either 5 ug/mL of Calf thymus HMGB1 or HMBG2 diluted in 10 mM Phosphate buffered saline (PBS), pH 7.2 and incubate overnight at 4 degrees. The plates were washed twice with Ca and Mg free PBS and 100 microliters of anti-HMGB1 antibody diluted in 10 mM PBS, pH 7.2+1% bovine serum albumin (BSA) to a final concentration of 10 ug/mL was added to each well and the plates were incubated 1 hour at room temperature. The wells were washed three times with 100 μl of PBS, pH 7.2. HRP labeled goat-anti-human IgG Kappa-chain (KPL, #14-10-10) and goat-anti-human IgG Lambda-chain (KPL, #14-10-11) were diluted in 10 mM PBS+1% BSA 1:1000 and 100 μl were added to each well and incubated for 1 hour at room temperature. The wells were then washed three times with 100 μl of PBS, pH 7.2. OPD substrate (Pierce chemical company, #34006) was prepared following the manufacturers instructions and 100 μl of prepared substrate was added to each well and the plates incubated at room temperature in the dark for 20-30 minutes. The reaction was stopped with the addition of 100 μl of 2M H2SO4, and the plates read on a plate reader at a wavelength of 490 nm.

[2] = Differential scanning calorimetry; type: physicochemical; set-up: unit: °C; details: in °C (unit assumed)
Procedure: Differential Scanning Calorimetry: Thermal melting temperatures (Tm) were measured with a VP-DSC (MicroCal, LLC) using a scan rate of 1.0° C./min and a temperature range of 25-120° C. A filter period of 8 seconds was used along with a 5 minute pre-scan thermostating. Samples were prepared by dialysis into 25 mM Histidine-HCl, pH 6 using Pierce dialysis cups (3.5 kD). Average Mab concentrations were 50 μg/mL as determined by A280. Melting temperatures were determined following manufacturer procedures using Origin software supplied with the system. Briefly, multiple baselines were run with buffer in both the sample and reference cell to establish thermal equilibrium. After the baseline was subtracted from the sample thermogram, the data were concentration normalized and fitted using the deconvolution function.

[3] = target: T2, recombinant HMG1 binding to RAGE-Fc; test: HMG1 binding to RAGE-Ig by ELISA; details: at the concentrations tested
Procedure: HMG1 binding to RAGE-Ig by ELISA: 50 μl/well of RAGE-Fc fusion protein at 5 μg/ml in PBS was added to each well of an ELISA plate and incubated overnight at 4° C. The plate was then blocked with 200 μl of 5% milk at 37° C. for 1 hr and washed 3× with PBS/Tween. 50 μl/well of diluted HMGB1 solution. For dose curves, HMGB1 concentrations started at 4 ug/ml in PBS. For antibody blocking the HMGB1 was preincubated in another plate with human anti-HMG1 antibodies or buffer, then transferred to the RAGE-coated plate. The plates were then incubated at room temperature for 2 hours and washed 3×. To detect any HMG1 bound to the immobilized RAGE-Fc a mixture of biotinylated mouse anti-HMG1 mAbs (10D4, 4H11, 3E10 and 5C12) each at 1 ug/ml, total Ab: 4 ug/ml, were added to each well and the plate was incubated for 1 hour at room temperature. The plate was then washed and Strepavidin-HPR was added to each well and incubated 15 min. The plate was then washed 3× and blotted dry. 100 μl of TMB developing agent was added and the plate read at 650 nm. Values were calculated as percent of inhibition with HMG1 alone equal to 0% inhibition. The data in FIG. 9 and summarized in Table 1 represent the average of two separate experiments.

[4] = system: HMG1 (recombinant, native; immobilized, soluble); test: Direct and sandwich (capture) ELISA comparing forms of HMG1; type: binding; details: two ELISA formats, rHMG1
Procedure: Direct ELISA (immobilized HMG1): Individual wells of a 96-well immunoplate (EIA/RIA plate, High binding, Costar) were coated with HMGB-1 at 5 μg/ml in PBS at 4° C. overnight. The plate was then blocked with 4% milk powder dissolved in PBS at 37° C. for 1 hour. The blocking solution was removed and replaced with human anti-HMG1 antibodies at various concentrations (see FIG. 4A). The plate was then washed (ELX-405 Plate washer, BIO-TEK) and secondary antibody (anti-human IgG-HRP, PIERCE) was added at a final concentration of 1:125,000 at 37° C. for 1 hour. HRP activity was detected with Sureblue HRP substrate (KPL). Plates were read at 450 nm using a Kinetic Microplate Reader (Molecular Devices).
Sandwich ELISA (soluble HMG1): Immunoplates (EIA/RIA plate, High binding, Costar) were coated with anti human IgG Fc at 10 μg/ml in PBS (pH 7.2) and incubated at 4° C. overnight. The coating reagent was removed and the plates were rinsed briefly with PBS. The plates were then blocked with 4% milk for 1 hour at 37° C. and rinsed with PBS. The anti-HMG1 antibodies were diluted in 4% milk. For serial dilutions, the antibodies were used at a starting concentration of 20 μg/ml. The diluted anti-HMG1 antibodies were then added into plate and incubated for 1 hr at 37° C. The plate was then washed 10 times with PBST (PBS/0.1% tween 20) and incubate with antigen (HMGB1, 2 μg/ml; or 0.7 μg/ml for native HMGB1) in 4% milk and incubated at 37° C. for 1 h. The plate was then wash 10 times and incubated with mouse anti-HMGB1, 1 μg/ml in 4% milk at 37° C. for 1 h. The plate was washed 10 times and incubated with anti-mouse IgG-HRP at 1:1000 at 37° C. for 1 h. The plate was then washed and developed. HRP activity was detected with Sureblue HRP substrate (KPL). Plates were read at 450 nm using a Kinetic Microplate Reader (Molecular Devices).

| Molecule | relative binding to HMG1 and HMG2 (HMG2) | PI [1] | Tm [2] | block of recombinant HMG1 binding to RAGE [3] | binding to immobilized versus soluble HMG1 [4] |
| --- | --- | --- | --- | --- | --- |
| G16: human anti-HMG1 antibody; VL/VH aa SEQ ID NO: 42/44 (antibody, listed as Homo sapiens, V domains shown) VH: EVQLLESGGGLVQPGGSLRLSCAASGFTFSWYKMTWVRQAPGKGLEWVSSISPSGGFTSYADSVKGRFTISRDNSKNTLYLQMNSLRAEDTAVYYCARDLDIRHAFDIWGQGTMVTVSS VL: AQDIQMTQSPGTLSLSPGESGTLSCRASESVSSRHFAWYQQKPGQAPRLLIYGASSRPTGIPDRFSGSGSGTDFTLTLSRLEPEDFAVYFCQYYGSSPYTFGGGTKVEMK | – | – | – | did not inhibit RAGE binding; also recorded: do not at the concentrations tested | bound slightly better to immobilized rHMG1 |
| S14: human anti-HMG1 antibody; VL/VH aa SEQ ID NO: 66/68 (antibody, listed as Homo sapiens, V domains shown) VH: EVQLLESGGGLVQPGGSLRLSCAASGFTFSWYETGWVRQAPGKGLEWVSGISPSGGYTQYADSVKGRFTISRDNSKNTLYLQMNSLRAEDTAVYYCARSGVGATKIFDYWGQGTLVTVSS VL: AQDIQMTQSPSSLSASVGDRVTIICRANERINTYLNWYQQKPGKAPKLLISGTSSLESGVPSRFSGSGSGTEFTLSISSLQPEDFASYYCQQSYSSPYTFGQGTNLEIR | specific for HMG1 | 8.62 | 70.7 | did not inhibit RAGE binding; also recorded: do not at the concentrations tested | – |
| G12: human anti-HMG1 antibody; VL/VH aa SEQ ID NO: 38/40 (antibody, listed as Homo sapiens, V domains shown) VH: EVQLLESGGGLVQPGGSLRLSCAASGFTFSYYMMTWVRQAPGKGLEWVSSISPSGGYTIYADSAKGRFTISRDNSKNTLYLQMNSLRAEDTAVYYCARALSTGSFWDYWGQGTLVTVSS VL: AQDIQMTQSPGTLSLSPGERATLSCRASESLTSTYVAWYQHKPGQAPRLLIHGGSTRATGIPVRFSGSGSGTDFTLTIATLEPEDFAVYYCQQYGSSPYTFGQGTKLEIK | specific for HMG1 | 8.6 | 78.8 | did not inhibit RAGE binding; also recorded: do not at the concentrations tested | little difference in binding to immobilized or soluble HMG1 |

The next lines start with results.

| relative binding to HMG1 and HMG2 (HMG2) | Molecule | PI [1] | Tm [2] | block of recombinant HMG1 binding to RAGE [3] | binding to immobilized versus soluble HMG1 [4] |
| --- | --- | --- | --- | --- | --- |
| specific for HMG1 | G35: human anti-HMG1 antibody; VL/VH aa SEQ ID NO: 54/56 (antibody, listed as Homo sapiens, V domains shown) VH: EVQLLESGGGLVQPGGSLRLSCAASGFTFSWYKMVWVRQAPGKGLEWVSSIVPSGGITIYADSVKGRFTISRDNSKNTLYLQMNSLRAEDTAVYYCARVQQWLGRPYFDYWGQGTLVTVSS VL: AQDIQMTQSPLSLPVTPGEPASISCRSSQSLLHGNGYNYLDWYLQRPGQSPQLLIYSGSNRASGVPDRFSGSGSGTDFTLKISRVEAEDVGVYYCMQSLQSRTFGQGTKVEIK | 8.61 | 69 | – | – |
| specific for HMG1 | G34: human anti-HMG1 antibody; VL/VH aa SEQ ID NO: 50/52 (antibody, listed as Homo sapiens, V domains shown) VH: EVQLLESGGGLVQPGGSLRLSCAASGFTFSHYMMGWVRQAPGKGLEWVSRISPSGGGTVYADSVKGRFTISRDNSKNTLYLQMNSLRAEDTAVYYCARGGNWNYISYYYYYLDVWGKGTTVTVSS VL: AQDIQMTQSPSSLSASVGDRVAITCRASQSIDTYLNWYQQKPGKAPKLLIYAASKLEDGVPSRFSGSGTGTDFTLTIRSLQPEDFASYFCQQSYSSPGITFGPGTKVEIK | ~8.7 | ~75 | do not at the concentrations tested | bind better to soluble rHMG1 |
